Experimental findings from article PMC3379008 are described below.

The target in this test is B/Florida/04/06 full-length HA protein produced from baculovirus in Spodoptera frugiperda insect cells (influenza B virus B/Florida/04/06). The experiment in a line: SEC.

In the case of “B/Florida/04/06 full-length HA protein produced from baculovirus in Spodoptera frugiperda insect cells (natural protein)”, the stoichiometry N is > 9 HA monomers.
